Measurements as given in article PMC10404244, “Control of motor landing and processivity by the CAP-Gly domain in the KIF13B tail” (Nature Communications, 2023).

Molecular target: T1, tyrosinated microtubules polymerized from purified porcine brain tubulin (porcine, UniProt P02550 1-451); Q767L7 1-444, part of the tubulin labelled with biotin NHS ester and Dylight-405 (or Alexa647) NHS ester (chain and residues not told) | part of the tubulin labelled with biotin NHS ester and Dylight-405 (or …)
T1 construct: alpha-tubulin of porcine brain, mixture of isotypes and PTMs, approximately 50% tyrosinated; beta-tubulin of porcine brain, mixture of isotypes and PTMs; A polymer of alpha/beta-tubulin dimers, held on the coverslip through biotin-streptavidin; also called WT (tyrosinated) microtubules; tyrosinated MTs; source: purified from porcine brain (high-molarity PIPES procedure), polymerized with GTP, …
Assay: TIRF microscopy microtubule-binding assay; KIF5B constructs on tyrosinated and detyrosinated microtubules in the presence of ADP (Supplementary Fig. 5G); read-out not told

- fold binding, tyrosinated over detyrosinated microtubules (ADP): ~16 fold
B1: chimeric KIF5B motor domain and stalk appended with the CAP-Gly domain from KIF13B (other)
chain: MADLAECNIKVMCRFRPLNESEVNRGDKYIAKFQGEDTVVIASKPYAFDRVFQSSTSQEQVYNDCAKKIVKDVLEGYNGTIFAYGQTSSGKTHTMEGKLHDPEGMGIIPRIVQDIFNYIYSMDENLEFHIKVSYFEIYLDKIRDLLDVSKTNLSVHEDKNRVPYVKGCTERFVCSPDEVMDTIDEGKSNRHVAVTNMNEHSSRSHSIFLINVKQENTQTEQKLSGKLYLVDLAGSEKVSKTGAEGAVLDEAKNINKSLSALGNVISALAEGSTYVPYRDSKMTRILQDSLGGNCRTTIVICCSPSSYNESETKSTLLFGQRAKTIKNTVCVNVELTAEQWKKKYEKEKEKNKILRNTIQWLENELNRWRNGETVPIDEQFDKEKANLEAFTVDKDITLTNDKPATAIGVIGNFTDAERRKCEEEIAKLYKQLDDKDEEINQQSQLVEKLKTQMLDQEELLASTRRDQDNMQAELNRLQAENDASKEEVKEVLQALEELAVNYDQKSQEVEDKTKEYELLSDELNQKSATLASIDAELQKLKEMTNHQKKRAAEMMASLLKDLAEIGIAVGNNDVKQPEGTGMIDEEFTVARLYISKMKSEVKTMVKRCKQLESTQTESNKKMEENEKELAACQLRISQHEAKIKSLTEYLQNVEQKKRQLEESVDALSEELVQLRAQEKVHEMEKEHLNKVQTANEVKQAVEQQIQSHRETHQKQISSLRDEVEAKAKLITDLQDQNQKMMLEQERLRVEHEKLKATDQEKSRKLHELTVMQDRREQARQDLKGLEETVAKELQTLHNLRKLFVQDLATRVKKSAEIDSDDTGGSAAQKQKISFLENNLEQLTKVHKQLVRDNADLRCELPKLEKRLRATAERVKALESALKEAKENASRDRKRYQQEVDRIKEAVRSKNMAQALASDSEEADEVPEWLREGEFVTVGAHKTGVVRYVGPADFQEGTWVGVELDLPSGKNDGSIGGKQYFRCNPGYGLLVRPSRVRRATGPVRRRSTGLRLGAPEARRSATLSGSATNLASLTAALAKADRSHKNPENRKSWAS
